Assays:
[1] = target: N-terminus Huntingtin exon 1 fragment harboring pathological (109Q) polyglutamine repeats, fused with eCFP or eYFP; experiment: FRET or BRET; frequency-domain FLIM-FRET (phasor trajectory) in living Neuro2a cells co-expressing 109QHtt-eCFP and 109QHtt-eYFP; aggregated fraction; no peptide
[2] = target: N-terminus Huntingtin exon 1 fragment harboring pathological (109Q) polyglutamine repeats, fused with eCFP or eYFP; experiment: FRET or BRET; frequency-domain FLIM-FRET (phasor trajectory) in living Neuro2a cells co-expressing eCFP (donor) and eYFP (acceptor) fusions; soluble fraction; no peptide
[3] = target: N-terminus Huntingtin exon 1 fragment harboring pathological (109Q) polyglutamine repeats, fused with eCFP or eYFP; experiment: FRET or BRET; frequency-domain FLIM-FRET (phasor trajectory) in living Neuro2a cells co-expressing 109QHtt-eCFP and 109QHtt-eYFP; soluble fraction; cells treated with 8R10Q
[4] = target: N-terminus Huntingtin exon 1 fragment harboring pathological (109Q) polyglutamine repeats, fused with eCFP or eYFP; experiment: FRET or BRET; frequency-domain FLIM-FRET (phasor trajectory) in living Neuro2a cells co-expressing 109QHtt-eCFP and 109QHtt-eYFP; aggregated fraction; cells treated with 8R10Q

Chain of N-terminus Huntingtin exon 1 fragment harboring pathological (109Q) polyglutamine repeats, fused with eCFP or eYFP (P42858 whole entry, change not shown, the tested form may be a part): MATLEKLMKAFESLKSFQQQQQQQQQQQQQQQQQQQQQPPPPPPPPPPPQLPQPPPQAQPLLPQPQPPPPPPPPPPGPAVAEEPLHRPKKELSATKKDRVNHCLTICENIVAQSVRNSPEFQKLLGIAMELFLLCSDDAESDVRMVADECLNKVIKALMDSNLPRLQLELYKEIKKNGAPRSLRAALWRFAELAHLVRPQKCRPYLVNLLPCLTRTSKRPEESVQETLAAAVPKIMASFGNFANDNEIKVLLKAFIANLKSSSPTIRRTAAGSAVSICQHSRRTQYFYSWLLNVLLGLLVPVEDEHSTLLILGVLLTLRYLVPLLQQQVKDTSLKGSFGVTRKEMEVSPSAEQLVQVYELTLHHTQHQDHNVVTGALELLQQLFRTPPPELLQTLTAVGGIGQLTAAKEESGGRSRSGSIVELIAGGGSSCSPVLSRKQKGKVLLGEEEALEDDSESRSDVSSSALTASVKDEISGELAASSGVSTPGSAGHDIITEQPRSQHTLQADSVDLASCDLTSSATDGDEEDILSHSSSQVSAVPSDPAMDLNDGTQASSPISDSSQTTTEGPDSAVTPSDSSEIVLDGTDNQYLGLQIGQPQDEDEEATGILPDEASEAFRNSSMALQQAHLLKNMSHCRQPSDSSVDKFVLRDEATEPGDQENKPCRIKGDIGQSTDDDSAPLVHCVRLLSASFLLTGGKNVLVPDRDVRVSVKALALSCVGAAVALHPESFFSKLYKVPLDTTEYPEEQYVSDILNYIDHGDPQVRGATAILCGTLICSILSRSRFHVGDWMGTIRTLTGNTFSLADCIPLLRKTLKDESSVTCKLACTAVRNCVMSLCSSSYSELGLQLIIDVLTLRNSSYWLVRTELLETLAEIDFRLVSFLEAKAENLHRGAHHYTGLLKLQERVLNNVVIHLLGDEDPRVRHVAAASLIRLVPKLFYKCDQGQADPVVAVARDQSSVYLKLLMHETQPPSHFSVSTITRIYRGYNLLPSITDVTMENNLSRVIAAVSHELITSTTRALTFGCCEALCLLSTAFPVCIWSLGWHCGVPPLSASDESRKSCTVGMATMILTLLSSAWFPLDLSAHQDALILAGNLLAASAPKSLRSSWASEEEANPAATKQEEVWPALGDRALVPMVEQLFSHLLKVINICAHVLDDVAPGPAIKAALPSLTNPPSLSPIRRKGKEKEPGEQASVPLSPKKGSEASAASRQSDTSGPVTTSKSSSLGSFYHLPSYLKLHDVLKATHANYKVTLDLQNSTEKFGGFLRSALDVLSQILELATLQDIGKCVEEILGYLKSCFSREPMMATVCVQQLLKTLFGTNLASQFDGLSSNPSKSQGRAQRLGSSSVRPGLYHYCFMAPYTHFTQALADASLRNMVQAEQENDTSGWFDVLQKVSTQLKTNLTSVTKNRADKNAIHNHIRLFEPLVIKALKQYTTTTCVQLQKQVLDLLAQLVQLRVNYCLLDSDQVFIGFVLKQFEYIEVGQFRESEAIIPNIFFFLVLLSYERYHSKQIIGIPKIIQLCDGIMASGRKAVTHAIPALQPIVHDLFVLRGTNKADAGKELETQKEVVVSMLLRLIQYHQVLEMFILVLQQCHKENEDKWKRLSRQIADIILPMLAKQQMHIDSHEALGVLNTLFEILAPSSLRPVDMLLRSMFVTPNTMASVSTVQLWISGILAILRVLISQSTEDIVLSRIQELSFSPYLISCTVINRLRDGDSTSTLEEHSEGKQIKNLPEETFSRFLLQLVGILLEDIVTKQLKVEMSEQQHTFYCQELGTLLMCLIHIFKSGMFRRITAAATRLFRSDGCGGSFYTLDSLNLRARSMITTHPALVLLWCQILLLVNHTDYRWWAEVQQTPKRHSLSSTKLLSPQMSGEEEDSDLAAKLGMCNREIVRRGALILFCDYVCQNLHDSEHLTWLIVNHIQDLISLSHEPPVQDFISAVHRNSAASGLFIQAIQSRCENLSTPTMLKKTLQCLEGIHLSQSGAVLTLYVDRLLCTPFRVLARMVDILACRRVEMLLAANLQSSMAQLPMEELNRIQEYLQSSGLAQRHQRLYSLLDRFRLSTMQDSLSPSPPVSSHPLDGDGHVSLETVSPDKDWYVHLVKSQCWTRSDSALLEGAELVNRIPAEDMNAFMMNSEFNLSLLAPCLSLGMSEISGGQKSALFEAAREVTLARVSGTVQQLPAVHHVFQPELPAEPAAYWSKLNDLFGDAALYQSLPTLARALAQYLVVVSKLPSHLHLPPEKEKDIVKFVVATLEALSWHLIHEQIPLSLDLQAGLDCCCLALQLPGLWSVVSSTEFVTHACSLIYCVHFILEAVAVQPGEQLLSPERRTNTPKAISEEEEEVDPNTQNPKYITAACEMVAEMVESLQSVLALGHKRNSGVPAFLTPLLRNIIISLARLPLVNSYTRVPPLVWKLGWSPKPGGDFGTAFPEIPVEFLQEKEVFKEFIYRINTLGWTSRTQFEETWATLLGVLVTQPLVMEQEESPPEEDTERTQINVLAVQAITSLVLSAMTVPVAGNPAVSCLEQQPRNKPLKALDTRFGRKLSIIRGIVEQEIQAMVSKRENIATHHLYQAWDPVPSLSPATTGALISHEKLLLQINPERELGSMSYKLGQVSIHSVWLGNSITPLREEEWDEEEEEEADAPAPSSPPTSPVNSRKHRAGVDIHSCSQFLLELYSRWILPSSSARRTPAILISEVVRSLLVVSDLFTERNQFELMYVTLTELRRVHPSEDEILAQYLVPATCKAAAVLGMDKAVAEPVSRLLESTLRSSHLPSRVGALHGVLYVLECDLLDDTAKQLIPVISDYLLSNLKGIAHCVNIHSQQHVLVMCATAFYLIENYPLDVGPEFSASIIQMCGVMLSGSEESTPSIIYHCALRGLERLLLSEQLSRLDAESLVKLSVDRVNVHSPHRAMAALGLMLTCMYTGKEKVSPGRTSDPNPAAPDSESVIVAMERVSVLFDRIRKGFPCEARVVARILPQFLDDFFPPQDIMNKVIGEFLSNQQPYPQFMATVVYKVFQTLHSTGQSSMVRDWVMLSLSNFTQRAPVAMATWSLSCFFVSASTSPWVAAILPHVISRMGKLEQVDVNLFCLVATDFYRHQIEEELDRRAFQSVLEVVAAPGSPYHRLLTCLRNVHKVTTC

Q: Which results are given for “N-terminus Huntingtin exon 1 fragment harboring pathological (109Q) polyglutamine repeats, fused with eCFP or eYFP (domain or fragment)”?
A: FRET efficiency [1]: 41.8%; FRET efficiency [2]: 8.7%; FRET efficiency with 8R10Q [3]: 4.5%; FRET efficiency with 8R10Q [4]: 16.4%
